Laboratory results taken from patent US20210221894A1 (DRAGONFLY THERAPEUTICS, published 2021).

T1: recombinant human DLL3 (ELISA coat) (human, UniProt Q9NYJ7 27-492)
T1 sequence: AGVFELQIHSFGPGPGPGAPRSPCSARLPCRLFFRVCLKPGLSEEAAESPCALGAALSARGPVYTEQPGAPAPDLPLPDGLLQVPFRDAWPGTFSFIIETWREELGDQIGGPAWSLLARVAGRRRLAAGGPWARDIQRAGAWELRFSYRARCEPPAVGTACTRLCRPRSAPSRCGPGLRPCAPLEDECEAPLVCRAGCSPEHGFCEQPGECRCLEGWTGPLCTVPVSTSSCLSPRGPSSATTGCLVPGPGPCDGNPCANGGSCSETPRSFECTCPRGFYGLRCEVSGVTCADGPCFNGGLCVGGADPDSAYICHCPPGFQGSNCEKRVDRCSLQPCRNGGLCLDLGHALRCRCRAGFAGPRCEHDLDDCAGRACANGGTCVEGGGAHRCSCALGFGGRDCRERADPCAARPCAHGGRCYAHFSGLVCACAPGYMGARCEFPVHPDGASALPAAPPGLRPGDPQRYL

T2: extracellular domain (ECD) of human DLL3 (AdipoGen Life Sciences) (human, UniProt Q9NYJ7 27-492)
T2 construct: Bought and further purified by size exclusion chromatography; also called hDLL3 ECD; DLL3 ECD
T2 sequence: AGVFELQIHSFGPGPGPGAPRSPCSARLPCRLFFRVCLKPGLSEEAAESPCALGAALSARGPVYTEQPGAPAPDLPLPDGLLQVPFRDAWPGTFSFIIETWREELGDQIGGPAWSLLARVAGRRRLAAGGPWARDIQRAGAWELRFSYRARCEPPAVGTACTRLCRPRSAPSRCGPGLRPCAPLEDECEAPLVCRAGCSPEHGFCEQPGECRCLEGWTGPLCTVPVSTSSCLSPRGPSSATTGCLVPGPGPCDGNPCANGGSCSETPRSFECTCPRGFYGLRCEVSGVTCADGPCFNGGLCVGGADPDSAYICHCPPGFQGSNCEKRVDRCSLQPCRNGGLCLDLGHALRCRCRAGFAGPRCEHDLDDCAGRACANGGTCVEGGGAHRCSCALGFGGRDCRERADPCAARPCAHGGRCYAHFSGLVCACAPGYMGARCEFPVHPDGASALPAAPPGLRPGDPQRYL

T3: recombinant human DLL1 (human, UniProt O00548 18-540, limits assumed)
T3 sequence (looked up): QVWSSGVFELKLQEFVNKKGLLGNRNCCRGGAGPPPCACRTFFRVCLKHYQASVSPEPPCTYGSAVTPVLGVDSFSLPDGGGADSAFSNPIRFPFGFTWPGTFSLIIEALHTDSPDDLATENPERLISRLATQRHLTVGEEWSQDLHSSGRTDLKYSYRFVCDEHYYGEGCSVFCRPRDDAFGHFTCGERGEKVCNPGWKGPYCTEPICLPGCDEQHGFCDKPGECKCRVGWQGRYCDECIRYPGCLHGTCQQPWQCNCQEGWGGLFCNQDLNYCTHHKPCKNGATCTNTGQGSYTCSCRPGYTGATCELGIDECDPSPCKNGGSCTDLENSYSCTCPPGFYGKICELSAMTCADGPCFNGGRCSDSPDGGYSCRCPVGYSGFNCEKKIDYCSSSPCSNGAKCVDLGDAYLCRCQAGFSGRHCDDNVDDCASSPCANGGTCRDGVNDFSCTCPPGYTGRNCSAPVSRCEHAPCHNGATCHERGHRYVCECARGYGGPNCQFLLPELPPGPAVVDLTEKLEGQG

T4: recombinant human NKG2D-Fc fusion protein (human, UniProt P26718 73-216)
T4 construct: extracellular domain; also called NKG2D-Fc-biotin; not shown: human IgG1 Fc domain
T4 sequence (looked up): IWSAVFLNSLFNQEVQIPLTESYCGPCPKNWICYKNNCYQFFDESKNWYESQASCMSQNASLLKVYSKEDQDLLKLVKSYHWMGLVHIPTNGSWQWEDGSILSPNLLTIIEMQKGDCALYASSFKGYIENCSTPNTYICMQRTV

T5: recombinant mouse NKG2D-Fc fusion protein (mouse; human, UniProt O54709 90-232)
T5 construct: extracellular domain; also called Mouse NKG2D-Fc-biotin; not shown: human IgG1 Fc domain
T5 sequence (looked up): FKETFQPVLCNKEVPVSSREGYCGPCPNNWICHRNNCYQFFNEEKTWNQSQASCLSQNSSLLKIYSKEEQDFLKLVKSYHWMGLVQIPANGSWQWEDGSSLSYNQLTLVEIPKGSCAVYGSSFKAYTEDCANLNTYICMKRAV

T6: recombinant cynomolgus NKG2D-Fc fusion protein (cynomolgus; human, UniProt P61252 73-216)
T6 construct: extracellular domain; not shown: human IgG1 Fc domain
T6 sequence (looked up): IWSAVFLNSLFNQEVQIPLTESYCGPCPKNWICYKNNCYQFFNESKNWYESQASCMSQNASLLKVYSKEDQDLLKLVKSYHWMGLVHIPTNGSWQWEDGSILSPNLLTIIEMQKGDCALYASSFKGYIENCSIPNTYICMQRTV

B1: anti-DLL3 antibody clone 9E6 (antibody, V domains shown)
VH: QLQLVQSGPELMRPGETVKISCKASGYTFTTYGMNWVKQAPGKGLKWVGWINTYSGVPTYADDFKGRFAFSLESSASTAFLQINNLKDEDTATYFCARFGNYGFDCWGQGTTLTVSS
VL: DIVMTQSPSSLSVSAGEKVTMSCKSSQSLLNSGNQKNYLAWYQQKPGQPPKLLIYGASTRESGVPDRFTGSGSGTDFTLTISSVQAEDLAVYYCQNDHIYPYTFGGGTKLEIK
notes: Murine antibody from a mouse hybridoma
B2: ADI-27740 (antibody, V domains shown)
VH: QVQLQQWGAGLLKPSETLSLTCAVYGGSFSGYYWSWIRQPPGKGLEWIGEIDHSGSTNYNPSLKSRVTISVDTSKNQFSLKLSSVTAADTAVYYCARARGPWSFDPWGQGTLVTVSS
VL: DIQMTQSPSTLSASVGDRVTITCRASQSIGSWLAWYQQKPGKAPKLLIYKASSLESGVPSRFSGSGSGTEFTLTISSLQPDDFATYYCQQYHSFYTFGGGTKVEIK
notes: also called A40

Columns and labels:
[1] = molecular target: T1, recombinant human DLL3 (ELISA coat); experiment: ELISA, plate coated with recombinant human DLL3 0.5 µg/ml, anti-mouse IgG-HRP
Protocol: (§1) To investigate the binding of anti-DLL3 antibodies to human DLL3, wells of high binding flat-bottom plates were coated with recombinant human DLL3 diluted to 0.5 μg/ml. To assess cross-reactivity of the antibodies to DLL1/DLL4, which are closely related family members to DLL3, plates were coated with recombinant human DLL1 diluted to 1 μg/ml, or human DLL4 diluted to 0.5 μg/ml. […] Binding was detected using anti-mouse IgG-HRP and 3,3′,5,5′-Tetramethylbenzidine (TMB) substrate. Signals were normalized to the corresponding positive control antibody.
Table 38 lists the calculated EC₅₀ based on the binding data from FIG. 24.

[2] = molecular target: T2, extracellular domain (ECD) of human …; experiment: SPR (Biacore 8K), 37 C, antibody captured on anti-mouse Fc, DLL3 ECD injected, 1:1 fit
Description: The binding kinetics of different anti-DLL3 antibodies to recombinant proteins of different domains of human DLL3 were studied by surface plasmon resonance (SPR) using a Biacore™ 8K instrument. These anti-DLL3 antibodies were produced from mouse hybridomas, and each included a heavy chain variable region and light chain variable region described herein. Briefly, antibodies recognizing human IgG Fc and antibodies recognizing mouse IgG Fc were immobilized on different channels of a Biacore™ 8K chip to allow simultaneous analysis of human and murine anti-DLL3 antibodies. Murine anti-DLL3 antibodies were captured on the anti-mouse Fc channel of the Biacore chip. The human anti-DLL3 antibody from Stemcentrx (San Francisco, Calif.) was used as a control and was captured onto anti-human Fc channel of the Biacore™ chip. Different concentrations of DLL3 ECD, DLL3 N-terminal domain, EGF2-6, EGF3-6, EGF4-6, or EGF5-6 domains of DLL3 were injected. Experiments were performed at 37° C. Biacore™ 8K evaluation software was used for all data analysis. To obtain kinetic rate constants double-referenced data were fit to a 1:1 interaction model using Biacore™ 8K Evaluation software (GE Healthcare, Marlborough, Mass.). The equilibrium binding constant KD was determined by the ratio of binding rate constants kd/kₐ.
Table 36 lists the calculated binding kinetics (KD). […] Stemcentrx anti-DLL3 antibody was used as a control.

recombinant human DLL1 = molecular target: T3, recombinant human DLL1; experiment: ELISA, plate-bound recombinant human DLL1 (1 µg/mL), anti-mouse IgG-HRP/TMB, % of positive control max
Protocol: as §1

[3] = molecular target: T4, recombinant human NKG2D-Fc fusion …; experiment: ELISA, plate-bound recombinant human NKG2D-Fc, anti-human kappa-HRP/TMB
Description: (§2) The nucleic acid sequences of human, mouse or cynomolgus NKG2D ectodomains were fused with nucleic acid sequences encoding human IgG1 Fc domains and introduced into mammalian cells to be expressed. After purification, NKG2D-Fc fusion proteins were adsorbed to wells of microplates. After blocking the wells with bovine serum albumin to prevent non-specific binding, NKG2D-binding domains were titrated and added to the wells pre-adsorbed with NKG2D-Fc fusion proteins. Primary antibody binding was detected using a secondary antibody which was conjugated to horseradish peroxidase and specifically recognizes a human kappa light chain to avoid Fc cross-reactivity. 3,3′,5,5′-Tetramethylbenzidine (TMB), a substrate for horseradish peroxidase, was added to the wells to visualize the binding signal, whose absorbance was measured at 450 nm and corrected at […]. An NKG2D-binding domain clone, an isotype control or a positive control (comprising heavy chain and light chain variable domains selected from SEQ ID NOs:101-104, or anti-mouse NKG2D clones MI-6 and CX-5, eBioscience, San Diego, Calif.) was added to each well.

[4] = molecular target: T5, recombinant mouse NKG2D-Fc fusion …; experiment: ELISA, plate-bound recombinant mouse NKG2D-Fc, anti-human kappa-HRP/TMB
Description: as §2

[5] = molecular target: T6, recombinant cynomolgus NKG2D-Fc fusion …; experiment: ELISA, plate-bound recombinant cynomolgus NKG2D-Fc, anti-human kappa-HRP/TMB
Description: as §2

[6] = molecular target: T4, recombinant human NKG2D-Fc fusion …; experiment: competition ELISA: plate-bound human NKG2D-Fc, saturating ULBP-6-His-biotin as blocked ligand, streptavidin-HRP
Protocol: Recombinant human NKG2D-Fc proteins were adsorbed to wells of a microplate, and the wells were blocked with bovine serum albumin to reduce non-specific binding. A saturating concentration of ULBP-6-His-biotin was added to the wells, followed by addition of the NKG2D-binding domain clones. After a 2-hour incubation, wells were washed and ULBP-6-His-biotin that remained bound to the NKG2D-Fc coated wells was detected by streptavidin-conjugated to horseradish peroxidase and TMB substrate. Absorbance was measured at 450 nm and corrected at […]. After subtracting background, specific binding of NKG2D-binding domains to the NKG2D-Fc proteins was calculated from the percentage of ULBP-6-His-biotin that was blocked from binding to the NKG2D-Fc proteins in wells.

[7] = molecular target: T5, recombinant mouse NKG2D-Fc fusion …; experiment: competition ELISA: plate-bound mouse Rae-1 delta-Fc, mouse NKG2D-Fc-biotin in solution; blocked ligand Rae-1 delta
Protocol: Recombinant mouse Rae-1 delta-Fc (R&D Systems, Minneapolis, Minn.) was adsorbed to wells of a microplate, and the wells were blocked with bovine serum albumin to reduce non-specific binding. Mouse NKG2D-Fc-biotin was added to the wells followed by NKG2D-binding domains. After incubation and washing, NKG2D-Fc-biotin that remained bound to Rae-1delta-Fc coated wells was detected using streptavidin-HRP and TMB substrate. Absorbance was measured at 450 nm and corrected at […]. After subtracting background, specific binding of NKG2D-binding domains to the NKG2D-Fc proteins was calculated from the percentage of NKG2D-Fc-biotin that was blocked from binding to the Rae-1delta-Fc coated wells.

Row | Binder | EC50 [1] [pM] | Kd [2] [pM] | koff [2] [s⁻¹] | kon [2] [M⁻¹ s⁻¹] | binding result (recombinant human DLL1) | EC50 (read off the curve) [3] [pM] | EC50 (read off the curve) [4] [pM] | EC50 (read off the curve) [5] [pM] | IC50 (read off the curve) [6] [pM] | IC50 (read off the curve) [7] [pM]
1 | B1 | 450 | 5110 | 0.00208 | 408000 | no binding | – | – | – | – | –
2 | B2 | – | – | – | – | – | ~400 | ~200 | ~300 | ~6000 | ~20000
